Measurements: patent publication US20030170807A1 (Johns Hopkins, published 2003)

T1: GKAP 1, native, from rat brain extracts (rat, UniProt P97836 1-992)
T1 construct: mature
T1 sequence (looked up): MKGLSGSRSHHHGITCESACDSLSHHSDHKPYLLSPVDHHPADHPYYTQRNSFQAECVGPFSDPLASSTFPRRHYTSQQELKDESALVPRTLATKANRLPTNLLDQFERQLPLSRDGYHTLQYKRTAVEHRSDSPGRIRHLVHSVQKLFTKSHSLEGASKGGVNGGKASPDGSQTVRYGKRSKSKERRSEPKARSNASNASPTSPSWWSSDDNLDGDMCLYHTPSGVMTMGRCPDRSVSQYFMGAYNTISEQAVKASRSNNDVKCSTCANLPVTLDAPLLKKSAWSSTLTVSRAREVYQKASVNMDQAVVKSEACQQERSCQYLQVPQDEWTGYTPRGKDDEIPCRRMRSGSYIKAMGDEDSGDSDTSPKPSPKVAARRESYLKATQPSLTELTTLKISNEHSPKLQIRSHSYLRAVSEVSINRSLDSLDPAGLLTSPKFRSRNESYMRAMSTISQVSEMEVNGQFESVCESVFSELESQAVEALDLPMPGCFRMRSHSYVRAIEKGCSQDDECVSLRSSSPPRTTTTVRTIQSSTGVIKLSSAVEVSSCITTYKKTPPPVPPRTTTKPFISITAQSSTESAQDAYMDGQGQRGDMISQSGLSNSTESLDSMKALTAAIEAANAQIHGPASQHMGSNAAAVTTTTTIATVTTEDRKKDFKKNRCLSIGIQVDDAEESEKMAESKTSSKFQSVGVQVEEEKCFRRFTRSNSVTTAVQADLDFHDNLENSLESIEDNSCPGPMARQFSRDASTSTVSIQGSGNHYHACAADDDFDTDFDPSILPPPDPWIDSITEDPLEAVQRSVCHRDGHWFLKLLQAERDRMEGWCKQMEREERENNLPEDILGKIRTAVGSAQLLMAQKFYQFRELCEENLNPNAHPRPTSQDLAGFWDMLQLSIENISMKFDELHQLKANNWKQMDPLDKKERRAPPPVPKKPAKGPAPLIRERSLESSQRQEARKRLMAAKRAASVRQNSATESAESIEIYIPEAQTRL

B1: GST-GKAP(carboxy-terminal): carboxy-terminal 76 amino acids of GKAP1a fused to GST (other, UniProt P97836-5 591-666, looked up)
chain: MDPLDKKERRAPPPVPKKPAKGPAPLIRERSLESSQRQEARKRLMAAKRAASVRQNSATESAESIEIYIPEAQTRL
notes: domain: carboxy-terminal 76 amino acids; not shown: glutathione-S-transferase, fusion partner

Assays:
[1] = biological target: mGluR of mouse cerebellar Purkinje cells (mouse) (UniProt P97772); experiment: cell-based or functional assay
Chain of mGluR of mouse cerebellar Purkinje cells (mouse) (P97772 21-1199): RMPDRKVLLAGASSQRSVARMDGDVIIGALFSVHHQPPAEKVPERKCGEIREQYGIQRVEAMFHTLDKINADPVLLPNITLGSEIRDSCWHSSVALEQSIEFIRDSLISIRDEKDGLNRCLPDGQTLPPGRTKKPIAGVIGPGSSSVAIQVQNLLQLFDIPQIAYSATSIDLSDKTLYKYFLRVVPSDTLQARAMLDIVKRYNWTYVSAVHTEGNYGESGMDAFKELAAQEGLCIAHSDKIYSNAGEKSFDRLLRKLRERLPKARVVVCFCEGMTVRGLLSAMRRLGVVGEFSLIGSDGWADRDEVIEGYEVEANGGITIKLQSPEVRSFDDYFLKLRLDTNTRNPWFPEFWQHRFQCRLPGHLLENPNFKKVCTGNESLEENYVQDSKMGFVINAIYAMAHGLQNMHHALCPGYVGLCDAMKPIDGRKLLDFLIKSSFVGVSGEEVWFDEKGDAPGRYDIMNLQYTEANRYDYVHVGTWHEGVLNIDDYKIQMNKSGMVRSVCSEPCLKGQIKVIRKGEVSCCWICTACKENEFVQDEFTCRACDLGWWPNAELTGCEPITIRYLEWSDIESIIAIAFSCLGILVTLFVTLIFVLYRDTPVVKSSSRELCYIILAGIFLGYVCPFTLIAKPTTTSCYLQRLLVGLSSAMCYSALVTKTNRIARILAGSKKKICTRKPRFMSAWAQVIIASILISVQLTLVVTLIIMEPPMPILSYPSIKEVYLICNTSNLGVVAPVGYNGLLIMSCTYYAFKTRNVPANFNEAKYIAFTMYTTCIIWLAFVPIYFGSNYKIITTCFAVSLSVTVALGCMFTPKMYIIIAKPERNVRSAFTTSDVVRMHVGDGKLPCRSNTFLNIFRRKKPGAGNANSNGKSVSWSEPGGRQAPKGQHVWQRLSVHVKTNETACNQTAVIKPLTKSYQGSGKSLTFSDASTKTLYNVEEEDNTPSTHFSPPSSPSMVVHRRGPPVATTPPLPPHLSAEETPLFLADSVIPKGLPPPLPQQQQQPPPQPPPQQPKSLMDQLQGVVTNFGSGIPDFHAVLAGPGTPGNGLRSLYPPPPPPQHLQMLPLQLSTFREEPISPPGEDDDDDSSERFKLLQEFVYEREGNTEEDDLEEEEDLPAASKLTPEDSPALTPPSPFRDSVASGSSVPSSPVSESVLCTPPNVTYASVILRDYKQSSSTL

[2] = biological target: T1, GKAP 1, native, from rat brain extracts; experiment: GST pull-down from rat brain extracts

Molecule	mGluR-evoked Ca+2 response, amplitude [1]	mGluR-evoked Ca+2 response, latency [1]	binding result [2]
IEG form of Homer 1: 186 amino acid amino-terminal fragment of Homer 1b (pRK5 Homer 1 IEG) (from UniProt Q9Z2Y3 1-198)	170 nM	10.5 s	
B1			no binding
